Results on 33 molecules are retold here after article PMC10786891, “Massively parallel profiling of RNA-targeting CRISPR-Cas13d”.

Where a chain is given by its changes, count along the chain named. Names may count otherwise.

T1: EsCas13d, nuclease-dead (Eubacterium siraeum, UniProt B0MS50, R295A;H300A;R849A;H854A)
T1 sequence: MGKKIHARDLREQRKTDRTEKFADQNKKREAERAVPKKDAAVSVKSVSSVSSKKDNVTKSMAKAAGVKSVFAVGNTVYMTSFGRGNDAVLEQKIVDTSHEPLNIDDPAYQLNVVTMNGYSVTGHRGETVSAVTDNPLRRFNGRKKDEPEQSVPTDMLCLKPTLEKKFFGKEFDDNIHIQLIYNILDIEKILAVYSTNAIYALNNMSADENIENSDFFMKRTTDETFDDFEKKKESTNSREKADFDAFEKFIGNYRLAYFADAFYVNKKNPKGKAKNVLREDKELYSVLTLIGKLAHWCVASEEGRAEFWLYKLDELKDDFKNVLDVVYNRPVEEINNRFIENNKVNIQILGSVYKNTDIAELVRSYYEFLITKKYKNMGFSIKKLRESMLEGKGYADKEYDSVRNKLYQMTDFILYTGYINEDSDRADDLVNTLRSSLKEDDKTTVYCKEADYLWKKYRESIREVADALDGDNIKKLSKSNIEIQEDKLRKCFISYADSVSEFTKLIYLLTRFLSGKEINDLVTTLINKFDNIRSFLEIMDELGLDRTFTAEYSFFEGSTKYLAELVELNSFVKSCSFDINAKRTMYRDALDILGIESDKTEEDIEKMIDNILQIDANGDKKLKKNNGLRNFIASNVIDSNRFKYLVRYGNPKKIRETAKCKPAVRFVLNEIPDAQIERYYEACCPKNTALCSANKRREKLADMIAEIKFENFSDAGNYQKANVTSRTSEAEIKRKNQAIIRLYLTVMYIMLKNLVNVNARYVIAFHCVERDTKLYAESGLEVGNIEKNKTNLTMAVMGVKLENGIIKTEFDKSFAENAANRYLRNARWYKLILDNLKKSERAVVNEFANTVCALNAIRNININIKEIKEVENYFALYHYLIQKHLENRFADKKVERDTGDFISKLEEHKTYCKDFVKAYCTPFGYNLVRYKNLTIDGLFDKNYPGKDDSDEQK

B1: target 1 insG 3' of 2,insC 3' of 1 (mixed)
RNA 1: CACCCGUGCAAAAAUGCAGGGGUCUAAAACUGAGCGGAUAACCUCUCUAUGG
RNA 2: GGGAAUGGAUCCACAUCUACGAAUUCGUACCAUAGAGAGGUUAUCCGCUCGACCCGAGAUCGGAAGAGCACACGU
B2: target 1 insC 3' of 19,insG 3' of 7 (mixed)
RNA 1: B1 RNA 1
RNA 2: GGGAAUGGAUCCACAUCUACGAAUUCGUACCAUCAGAGAGGUUAUCGCGCUCACCGAGAUCGGAAGAGCACACGU
B3: target 1 C2U,G13U (mixed)
RNA 1: B1 RNA 1
RNA 2: GGGAAUGGAUCCACAUCUACGAAUUCGUACCAUAGAGAUGUUAUCCGCUUACCGAGAUCGGAAGAGCACACGU
B4: target 1 insC 3' of 10,insG 3' of 7 (mixed)
RNA 1: B1 RNA 1
RNA 2: B1 RNA 2 with A43C, U44A, C45U, U49G, G51U, A52C, C53A
B5: target 1 U3C,U8C (mixed)
RNA 1: B1 RNA 1
RNA 2: B3 RNA 2 with U39G, U44C, U49C, U50C
B6: target 1 insA 3' of 21,insU 3' of 15 (mixed)
RNA 1: B1 RNA 1
RNA 2: B2 RNA 2 with U33A, C34U, A39U, G40A, U42G, A44U, U45A, C46U, G47C
B7: target 1 del2,del9 (mixed)
RNA 1: B1 RNA 1
RNA 2: GGGAAUGGAUCCACAUCUACGAAUUCGUACCAUAGAGAGGUUUCCGCUACCGAGAUCGGAAGAGCACACGU
B8: target 1 insA 3' of 17,insG 3' of 11 (mixed)
RNA 1: B1 RNA 1
RNA 2: B2 RNA 2 with C34A, A35G, G36A, U43G, A44U, U45A, C46U, G47C
B9: target 1 insA 3' of 10,insC 3' of 9 (mixed)
RNA 1: B1 RNA 1
RNA 2: B1 RNA 2 with U44A, C46U, G47C, U49G, G51U, A52C, C53A
B10: target 1 insU 3' of 17,insA 3' of 8 (mixed)
RNA 1: B1 RNA 1
RNA 2: B2 RNA 2 with C34A, A35G, G36U, C46A, G47C
B11: target 1 C7U,U10A (mixed)
RNA 1: B1 RNA 1
RNA 2: B3 RNA 2 with U39G, U42A, C45U, U50C
B12: target 1 C7U,A20U (mixed)
RNA 1: B1 RNA 1
RNA 2: B3 RNA 2 with A32U, U39G, C45U, U50C
B13: target 1 insA 3' of 21,insG 3' of 8 (mixed)
RNA 1: B1 RNA 1
RNA 2: B2 RNA 2 with U33A, C34U, C46G, G47C
B14: target 1 insC 3' of 12,insC 3' of 3 (mixed)
RNA 1: B1 RNA 1
RNA 2: GGGAAUGGAUCCACAUCUACGAAUUCGUACCAUAGAGAGGCUUAUCCGCUCCACCGAGAUCGGAAGAGCACACGU
B15: target 1 C2A,G5A (mixed)
RNA 1: B1 RNA 1
RNA 2: B3 RNA 2 with U39G, G47A, U50A
B16: target 1 insG 3' of 22,insU 3' of 21 (mixed)
RNA 1: B1 RNA 1
RNA 2: GGGAAUGGAUCCACAUCUACGAAUUCGUACGCUAUAGAGAGGUUAUCCGCUCACCGAGAUCGGAAGAGCACACGU
B17: target 1 insU 3' of 14 (mixed)
RNA 1: B1 RNA 1
RNA 2: GGGAAUGGAUCCACAUCUACGAAUUCGUACCAUAGAGAUGGUUAUCCGCUCACCGAGAUCGGAAGAGCACACGU
B18: target 1 insA 3' of 19,insC 3' of 14 (mixed)
RNA 1: B1 RNA 1
RNA 2: B2 RNA 2 with C34A, G40C, U42G, A44U, U45A, C46U, G47C
B19: target 1 U3A,C6G (mixed)
RNA 1: B1 RNA 1
RNA 2: B3 RNA 2 with U39G, C46G, U49A, U50C
B20: target 1 insA 3' of 13,insC 3' of 9 (mixed)
RNA 1: B1 RNA 1
RNA 2: B16 RNA 2 with G31C, C32A, U35G, G42U, U44A, A45C
B21: target 1 U3C,C6A (mixed)
RNA 1: B1 RNA 1
RNA 2: B3 RNA 2 with U39G, C46A, U49C, U50C
B22: target 1 insG 3' of 11,insA 3' of 7 (mixed)
RNA 1: B1 RNA 1
RNA 2: B14 RNA 2 with C41U, U42G, C47A, G48C, C49G, U50C, C51U
B23: target 1 insU 3' of 21,insU 3' of 1 (mixed)
RNA 1: B1 RNA 1
RNA 2: GGGAAUGGAUCCACAUCUACGAAUUCGUACCUAUAGAGAGGUUAUCCGCUCAUCCGAGAUCGGAAGAGCACACGU
B24: target 1 U8A,U11G (mixed)
RNA 1: B1 RNA 1
RNA 2: B3 RNA 2 with U39G, U41G, U44A, U50C
B25: target 1 insC 3' of 20,insU 3' of 17 (mixed)
RNA 1: B1 RNA 1
RNA 2: B16 RNA 2 with G31C, C32A, U33C, A34U, U35A, A36G, G37U
B26: target 1 insG 3' of 18,insA 3' of 3 (mixed)
RNA 1: B1 RNA 1
RNA 2: B14 RNA 2 with A36G, G37A, A38G, G39A, C41G, C51A
B27: target 1 G13A,A20C (mixed)
RNA 1: B1 RNA 1
RNA 2: B3 RNA 2 with A32C, U39A, U50C
B28: target 1 C6U,A14C (mixed)
RNA 1: B1 RNA 1
RNA 2: B3 RNA 2 with A38C, U39G, C46U, U50C
B29: target 1 insU 3' of 22,insA 3' of 15 (mixed)
RNA 1: B1 RNA 1
RNA 2: B16 RNA 2 with G31U, U33A, A34U, U35A, A36G, G37A, A38G, G39A
B30: target 1 insG 3' of 22,insG 3' of 3 (mixed)
RNA 1: B1 RNA 1
RNA 2: B23 RNA 2 with C31G, U32C, C51G, A52C, U53A
B31: target 1 insG 3' of 20,insG 3' of 7 (mixed)
RNA 1: B1 RNA 1
RNA 2: B2 RNA 2 with U33G, C34U
B32: target 1 complement block 7-13 (mixed)
RNA 1: B1 RNA 1
RNA 2: B3 RNA 2 with U39C, G40C, U41A, U42A, A43U, U44A, C45G, U50C
B33: target 1 insG 3' of 14,insG 3' of 4 (mixed)
RNA 1: B1 RNA 1
RNA 2: B14 RNA 2 with C41G, U50G, C51U

The series addresses T1, EsCas13d, nuclease-dead. Briefly: crRNA (strand 1, pre-loaded); Mg2+; 40 mM Tris-HCl pH 7.5, 150 mM NaCl, 6 mM MgCl2, 1 mM DTT, 0.1% Tween-20, 0.2 mg/ml BSA; 25 C; 10 min per concentration, then washed. The note with it: tags: His6-TwinStrep-SUMO cleaved; N-terminal SNAP kept (SNAP-Surface 488); label: 3' end held by stalled T7 RNA polymerase.
With B1, the dissociation constant (Kd) stood at 10.4 ± 1.3 nM.
The molecule B2 gave a Kd of 24.1 ± 1.3 nM.
B3: the Kd came to 68 ± 20 nM.
The molecule B4 had a Kd of 16.8 ± 1.4 nM.
For the molecule B5, the Kd was 13.4 ± 0.6 nM.
As for B6, binding was characterised by a dissociation constant (Kd) of 31.6 ± 3.5 nM.
B7 had a Kd of 63 ± 9 nM.
In the case of B8, the dissociation constant Kd was 86 ± 21 nM.
For B9, the Kd turned out to be 14.4 ± 0.5 nM.
In turn, B10 had a Kd of 24.6 ± 1.5 nM.
B11 showed a Kd of 7.8 ± 0.4 nM.
The molecule B12 had a Kd of 41.2 ± 3.4 nM.
For B13, binding was put at a Kd of 29.8 ± 2.8 nM.
Take B14: the Kd was determined as 12.3 ± 2.6 nM.
To B15 belongs 31.6 ± 3.2 nM; to B16, 30 ± 2.5 nM; to B17, 38 ± 4 nM.
For the molecule B18, the Kd was ~70 nM.
B19 displayed a Kd of 5.27 ± 0.15 nM.
Molecule B20 showed a Kd of 8 ± 0.4 nM.
As for B21, the affinity, expressed as Kd, was 14.2 ± 1.5 nM.
Regarding B22, the Kd worked out at 21.7 ± 1.8 nM.
Turning to B23, the Kd was found to be 24.2 ± 1.8 nM.
Consider B24, for which binding was characterised by a dissociation constant (Kd) of 12.7 ± 0.5 nM.
B25 returned a Kd of 16.9 ± 2.2 nM.
B26 showed a Kd of 49.3 ± 3.1 nM.
The molecule B27 gave a Kd of 75 ± 29 nM.
On to B28, for which the affinity, expressed as Kd, was 20 ± 1 nM.
The molecule B29 came in with a Kd of 13.7 ± 3.1 nM.
Next, B30: 21.5 ± 2.1 nM; B31: 29 ± 5 nM; B32: 79 ± 16 nM.
Next, B33: 7.5 ± 0.8 nM.
